This assay concerns the target spt16_yeast SPT16 (UniProt P32558).

Sequence of spt16_yeast SPT16 (P32558 whole entry): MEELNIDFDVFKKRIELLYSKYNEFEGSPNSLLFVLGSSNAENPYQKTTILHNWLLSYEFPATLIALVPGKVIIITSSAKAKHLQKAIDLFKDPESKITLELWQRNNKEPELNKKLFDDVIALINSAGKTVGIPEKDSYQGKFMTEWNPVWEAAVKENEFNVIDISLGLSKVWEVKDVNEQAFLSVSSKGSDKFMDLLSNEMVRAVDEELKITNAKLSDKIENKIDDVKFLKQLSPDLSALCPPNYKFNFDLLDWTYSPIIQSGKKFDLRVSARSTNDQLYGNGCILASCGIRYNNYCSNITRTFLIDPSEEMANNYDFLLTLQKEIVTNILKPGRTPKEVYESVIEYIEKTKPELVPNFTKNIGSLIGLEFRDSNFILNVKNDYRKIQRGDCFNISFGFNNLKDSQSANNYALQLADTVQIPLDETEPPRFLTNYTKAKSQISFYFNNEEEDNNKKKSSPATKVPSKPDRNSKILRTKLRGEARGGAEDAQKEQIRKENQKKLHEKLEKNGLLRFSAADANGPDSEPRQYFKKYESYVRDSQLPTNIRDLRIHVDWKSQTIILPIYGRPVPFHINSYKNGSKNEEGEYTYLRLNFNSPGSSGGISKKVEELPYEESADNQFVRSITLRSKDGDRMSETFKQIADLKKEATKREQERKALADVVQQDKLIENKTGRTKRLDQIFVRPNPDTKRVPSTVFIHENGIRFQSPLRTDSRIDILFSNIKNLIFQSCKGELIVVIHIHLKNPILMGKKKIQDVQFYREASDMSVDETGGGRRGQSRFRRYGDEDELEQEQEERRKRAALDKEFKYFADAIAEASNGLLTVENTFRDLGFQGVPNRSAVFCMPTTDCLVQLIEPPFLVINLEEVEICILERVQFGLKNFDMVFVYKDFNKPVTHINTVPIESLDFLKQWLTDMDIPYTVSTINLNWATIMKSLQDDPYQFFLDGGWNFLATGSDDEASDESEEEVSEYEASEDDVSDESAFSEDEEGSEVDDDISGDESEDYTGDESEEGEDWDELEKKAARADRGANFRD

In the case of “Histone H2A type 3 (Homo sapiens) (from UniProt Q7L7L0) Q105A”, the “effect of a mutation on the interaction” value is recorded as “decreasing interaction strength”.

(Values after IntAct's records for PubMed 24352239.)
